Laboratory results taken from US8563314.

Key:
Assay in all cases: cell_activity
ZFN 25031 (synthetic) = details: pair with 12942, PBMC, 37C day 3
ZFN 25029 (synthetic) = details: pair with 12942, PBMC, 37C day 3
ZFN 25017 (synthetic) = details: pair with 12942, PBMC, 37C day 3
ZFN 25040 (synthetic) = details: pair with 12942, PBMC, 37C day 3
ZFN 25012 (synthetic) = details: pair with 12942, PBMC, 37C day 3
ZFN 25005 (synthetic) = details: pair with 12942, PBMC, 37C day 3
ZFN 25023 (synthetic) = details: pair with 12942, PBMC, 37C day 3
ZFN 25032 (synthetic) = details: pair with 12942, PBMC, 37C day 3
ZFN 25006 (synthetic) = details: pair with 12942, PBMC, 37C day 3
ZFN 25015 (synthetic) = details: pair with 12942, PBMC, 37C day 3; helices printed identical to 25014
ZFN 18759 (synthetic) = details: pair with 12942, PBMC, 37C day 3
ZFN 25014 (synthetic) = details: pair with 12942, PBMC, 37C day 3
ZFN 25036 (synthetic) = details: pair with 12942, PBMC, 37C day 3; helices printed identical to 25031
ZFN 25013 (synthetic) = details: pair with 12942, PBMC, 37C day 3
ZFN 25034 (synthetic) = details: pair with 12942, PBMC, 37C day 3
ZFN 25041 (synthetic) = details: pair with 12942, PBMC, 37C day 3
ZFN 25030 (synthetic) = details: pair with 12942, PBMC, 37C day 3; F3 printed RPMHUTN
ZFN 25027 (synthetic) = details: pair with 12942, PBMC, 37C day 3
ZFN 25016 (synthetic) = details: pair with 12942, PBMC, 37C day 3
ZFN 25025 (synthetic) = details: pair with 12942, PBMC, 37C day 3
ZFN 25028 (synthetic) = details: pair with 12942, PBMC, 37C day 3
ZFN 25011 (synthetic) = details: pair with 12942, PBMC, 37C day 3
ZFN 25010 (synthetic) = details: pair with 12942, PBMC, 37C day 3
ZFN 25022 (synthetic) = details: pair with 12942, PBMC, 37C day 3
ZFN 12942 (synthetic) = details: pair with 12947, day 3, K562
ZFN 12972 (synthetic) = details: pair with 12934, day 3, K562
ZFN 12971 (synthetic) = details: pair with 12934, day 3, K562
ZFN 12934 (synthetic) = details: pair with 12971 or 12972, day 3, K562

## CAGTCGTCTGGGCGGTGCT (double strand) [PD1 exon 1 18759/250xx site]
ZFN 25031 (synthetic)
  activity: 9.4 % NHEJ
ZFN 25029 (synthetic)
  activity: 8.1 % NHEJ
ZFN 25017 (synthetic)
  activity: 7.7 % NHEJ
ZFN 25040 (synthetic)
  activity: 6.1 % NHEJ
ZFN 25012 (synthetic)
  activity: 5.9 % NHEJ
ZFN 25005 (synthetic)
  activity: 4.4 % NHEJ
ZFN 25023 (synthetic)
  activity: 3.1 % NHEJ
ZFN 25032 (synthetic)
  activity: 6.7 % NHEJ
ZFN 25006 (synthetic)
  activity: 2.9 % NHEJ
ZFN 25015 (synthetic)
  activity: 3.9 % NHEJ
ZFN 18759 (synthetic)
  activity: 4.7 % NHEJ
ZFN 25014 (synthetic)
  activity: 10.7 % NHEJ
ZFN 25036 (synthetic)
  activity: 8.3 % NHEJ
ZFN 25013 (synthetic)
  activity: 3.7 % NHEJ
ZFN 25034 (synthetic)
  activity: 4.9 % NHEJ
ZFN 25041 (synthetic)
  activity: 7.9 % NHEJ
ZFN 25030 (synthetic)
  activity: 7.6 % NHEJ
ZFN 25027 (synthetic)
  activity: 6 % NHEJ
ZFN 25016 (synthetic)
  activity: 7.3 % NHEJ
ZFN 25025 (synthetic)
  activity: 8.8 % NHEJ
ZFN 25028 (synthetic)
  activity: 4.3 % NHEJ
ZFN 25011 (synthetic)
  activity: 3.1 % NHEJ
ZFN 25010 (synthetic)
  activity: 4.9 % NHEJ
ZFN 25022 (synthetic)
  activity: 3.6 % NHEJ

## CCAGGGCGCCTGTGGGATCTGCATGCCT (double strand) [PD1 exon 1 12942 site]
ZFN 12942 (synthetic)
  activity: 10 % NHEJ

## CTGTGGACTATGGGGAGCTGGATTTCCA (double strand) [PD1 exon 5 12971/12972 site]
ZFN 12972 (synthetic)
  activity: 11 % NHEJ
ZFN 12971 (synthetic)
  activity: 11 % NHEJ

## GAACACAGGCACGGCTGAGGGGTCCTCC (double strand) [PD1 exon 5 12934 site]
ZFN 12934 (synthetic)
  activity: 11 % NHEJ
